# Measured values from FireProtDB (doi:10.1021/bi00454a022).
# Values joined by “and” are separate entries in the source; they are usually repeats but may differ in a detail not shown here. Equal entries are not always repeated.
# Details: Bos taurus; pH 7; 25 °C; GdnHCl; CD; Sodium phosphate 20 mM; reversible: yes; whole UniProt chain shown
protein,measurement,value
"Gamma-crystallin B wild type, P02526 (protein) MGKITFYEDRGFQGHCYECSSDCPNLQPYFSRCNSIRVDSGCWMLYERPNYQGHQYFLRRGDYPDYQQWMGFNDSIRSCRLIPQHTGTFRMRIYERDDFRGQMSEITDDCPSLQDRFHLTEVHSLNVLEGSWVLYEMPSYRGRQYLLRPGEYRRYLDWGAMNAKVGSLRRVMDFY",denaturant m value,1.3 kcal/mol/M
same,unfolding free energy,21.8 kJ/mol and 27.2 kJ/mol
